Measurements: patent US20260049143A1 (KYMAB, published 2026)

Legend:
[1] = molecular target: T1, human ICOS-mFc (Chimerigen) (human, UniProt Q9Y6W8 21-140, limits assumed); assay: HTRF neutralisation of human B7-H2 binding to human ICOS-mFc, n2
T1 construct: Bought fusion; also called hICOS; recombinant human ICOS protein; not shown: mouse Fc
T1 sequence: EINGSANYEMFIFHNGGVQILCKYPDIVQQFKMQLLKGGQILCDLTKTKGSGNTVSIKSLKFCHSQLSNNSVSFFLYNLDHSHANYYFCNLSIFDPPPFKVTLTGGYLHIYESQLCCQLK
Experimental: (§1) 5 μl of human ICOS-mFc (Chimerigen) at 20 nM (5 nM final) or 5 μl of mouse ICOS-mFc (Chimerigen) at 4 nM (1 nM final) were added to relevant assay wells. Plate was incubated for 1 hour (hr) at room temperature (RT).
(§2) After incubation, assay was read on Envision plate reader (Perkin Elmer) using a standard HTRF protocol. 620 nm and 665 nm channel values were exported to Microsoft Excel and % Delta-F and % Neutralisation calculations performed. Titration curves and IC50 values [M] were plotted using Graphpad (Prism). IC50 values were calculated by first transforming the data using equation X=Log(X). The transformed data was then fitted using nonlinear regression, using fitting algorithm, log (inhibitor) vs. response-variable slope (four parameters).

[2] = molecular target: T2, Biotinylated human ICOS protein (human, UniProt Q9Y6W8 21-140, limits assumed, biotinylated); assay: avidity SPR (ProteOn), biotinylated hICOS on NLC chip, antibody analyte; apparent KD from equilibrium
T2 sequence: T1 sequence
Experimental: (§3) Biotinylated human ICOS protein diluted at 7.5 μg/mL in running buffer (1×HBS-EP+Buffer Technova, cat. No. H8022) was captured on a NLC sensor chip (Bio-Rad, cat No 1765021). The surface was then blocked using biocytin (Sigma Aldrich, cat No B1758) at 1 mg/mL.
(§4) The assay was carried out at 25° C.
(§5) The buffer injection (i.e. 0 nM) was used to double reference the sensorgrams. The analysis was carried out using the equilibrium model inherent to the ProteOn's analysis software for each mAb² construct.

[3] = molecular target: T1, human ICOS-mFc (Chimerigen); assay: DELFIA ELISA, coated human ICOS-mFc, N=3
Experimental: (§6) Recombinant ICOS proteins, human ICOS-mFc or mouse ICOS-mFc (Chimerigen) were diluted in 1×PBS and added to Black Hi-bind plates (Griener) at 1 μg/ml, 50 μl/well. Recombinant PD-L1 proteins, human PD-L1-Flag-His or mouse-His were diluted in 1×PBS and added to Black Hi-bind plates (Griener) at 4 μg/ml, 50 μl/well. The plates were left overnight at 4° C. The next day plates were washed 3× with 300 μl/well of 1×PBS+0.1% Tween and blocked with 200 μl/well of 1×PBS+1% BSA blocking buffer for 1 hr at RT on a plate shaker. Plates were washed 3× with 300 μl/well of 1×PBS+0.1% Tween.
(§7) However, human-PD-L1 mAb² antibodies were diluted in 1×PBS+0.1% BSA buffer and diluted 1 in 2 from a starting working concentration of 0.066 μM over an 11 point titration. Titrated antibodies were added to the plates, 50 μl/well and left to incubate for 1 hr at R.T on a plate shaker. Plates were washed 3× with 300 μl/well of 1×PBS+0.1% Tween.
(§8) DELFIA® Eu-labelled Anti-human IgG(Perkin-Elmer) was diluted 1:500 in DELFIA Assay buffer (Perkin-Elmer) and added to the assay plate (50 μl/well), left to incubate for 1 hr at RT on a plate shaker. […] After incubation, assay was read on Envision plate reader (Perkin Elmer), Time-resolved fluorescence (TRF) was measured at 615 nm.

[4] = molecular target: T3, mouse ICOS expressed on CHO cells (mouse, UniProt Q9WVS0 21-141); assay: flow cytometry, CHO mouse ICOS cells, anti-human IgG AF647, N=3
T3 construct: the cell-expressed form may differ; also called mICOS; CHO mouse ICOS
T3 sequence: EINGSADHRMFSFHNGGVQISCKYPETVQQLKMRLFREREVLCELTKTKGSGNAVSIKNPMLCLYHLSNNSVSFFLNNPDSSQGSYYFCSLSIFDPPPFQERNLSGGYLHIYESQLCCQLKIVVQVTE
Experimental: (§9) CHO-S cells transfected with either human ICOS or mouse ICOS were resuspended in FACS buffer (PBS+1% w/v BSA+0.1% w/v sodium azide) and transferred to a 96-well V-bottom plate (Greiner) at a density of 1×10⁵ cells per well. mAb and mAb² were titrated in FACS buffer, 1 in 3 dilution across 11 points from a starting working concentration of 400 nM. Plates were centrifuged at 300×g for 3 minutes, supernatant discarded and 50 μL mAb or mAb² solution were added to cells and incubated at 4° C. for 1 hour. Cells were washed with 150 μL of PBS and centrifuged at 300×g for 3 minutes, supernatant was discarded and cell pellet resuspended in 150 μL PBS added. This wash step was repeated twice. […] Cells were incubated for 1 hour at 4° C. in the dark. Cells were washed with 150 μL of PBS and centrifuged at 300 g for 3 minutes, supernatant was discarded and cell pellet resuspended in 150 μL PBS added. This wash step was repeated twice. Cells were fixed with 25 μL 4% v/v paraformaldehyde, incubated for 20 minutes at 4° C., cells were pelleted by centrifugation at 300×g and the supernatant discarded. Cells were washed with 150 μL of PBS and centrifuged at 300 g for 3 minutes, supernatant was discarded and cell pellet resuspended in 150 μL PBS added. This wash step was repeated. Pelleted cells were resuspended in 110 μL 1×PBS.

[5] = molecular target: T1, human ICOS-mFc (Chimerigen); assay: DELFIA ELISA, coated human ICOS-mFc, mean
Experimental: as §6, §7, §8

[6] = molecular target: T2, Biotinylated human ICOS protein; assay: avidity SPR (ProteOn), biotinylated hICOS on NLC chip, antibody analyte
Experimental: as §3, §4, §5

[7] = molecular target: T3, mouse ICOS expressed on CHO cells; assay: flow cytometry, CHO mouse ICOS cells, anti-human IgG AF647, N=1
Experimental: as §9

[8] = molecular target: T1, human ICOS-mFc (Chimerigen); assay: HTRF neutralisation of human B7-H2 binding to human ICOS-mFc, n1
Experimental: as §1, §2

[9] = molecular target: T4, mouse ICOS-mFc (Chimerigen) (mouse, UniProt Q9WVS0 21-141, limits assumed); assay: DELFIA ELISA, coated mouse ICOS-mFc, N=1
T4 construct: Bought fusion; also called mICOS; recombinant mouse ICOS protein; not shown: mouse Fc
T4 sequence: T3 sequence
Experimental: as §6, §7, §8

B1: STIM001_457 (bispecific antibody, V domains shown, not shown: a dimerising Fc or GST)
VH: QVQVVQSGAEVKKPGASVKVSCKASGYTFSTFGITWVRQAPGQGLEWMGWISAYNGDTNYAQNLQGRVIMTTDTSTSTAYMELRSLRSDDTAVYYCARSSGHYYYYGMDVWGQGTTVTVSS
VL: DIVMTQSPLSLPVTPGEPASISCRSSQSLLHSNEYNYLDWYLQKPGQSPQLLIFLGSNRASGVPDRFSGSGSGTDFTLKITRVEAEDVGIYYCMQSLQTPLTFGGGTKVEIK
notes: mAb^2 IgG1; also called STIM001_457 mAb^2
- IC50 [1]: 1.32 nM
- Kd [2]: 9.2 nM
- EC50 [3]: 9.17 nM
- EC50 [4]: 6.97 nM
- EC50 [5]: 12.6 nM
- koff [6]: 0.000346 s⁻¹
- EC50 [7]: 5.14 nM
- IC50 [8]: 1.1 nM
- EC50 [9]: 23.6 nM

B2: STIM003_457 (bispecific antibody, V domains shown, not shown: a dimerising Fc or GST)
VH: EVQLVESGGGVVRPGGSLRLSCVASGVTFDDYGMSWVRQAPGKGLEWVSGINWNGGDTDYSDSVKGRFTISRDNAKNSLYLQMNSLRAEDTALYYCARDFYGSGSYYHVPFDYWGQGILVTVSS
VL: EIVLTQSPGTLSLSPGERATLSCRASQSVSRSYLAWYQQKRGQAPRLLIYGASSRATGIPDRFSGDGSGTDFTLSISRLEPEDFAVYYCHQYDMSPFTFGPGTKVDIK
notes: mAb^2 IgG1; also called ST1M003_457; STIM003_457 mAb^2
- IC50 [1]: 0.47 nM
- Kd [2]: 0.9 nM
- EC50 [3]: 0.401 nM
- EC50 [4]: 11.9 nM
- EC50 [5]: 0.43 nM
- koff [6]: 0.000244 s⁻¹
- EC50 [7]: 8.92 nM
- IC50 [8]: 0.44 nM
- EC50 [9]: 0.327 nM
